Here are results for 41 sequences from the nanobody polyreactivity screen of Harvey et al. (2022).

The nature of this data set: yeast display, Sf9 membrane polyspecificity reagent, FACS + sequencing; frameworks hold sequencing errors. The method in brief: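 Genes from sorted yeast were amplified by colony PCR, read by MiSeq 2 × 250 sequencing and filtered on CDR length. These cells carried a synthetic nanobody library in Saccharomyces cerevisiae BJ5465 and were sorted by FACS into low and high (top ~1%) gates on anti-HA and streptavidin fluorescence. Polyreactivity is labelled according to the gate of origin.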
With “QVQLVESGGGLVQAGGSLRLSCAASGSIFRYYAMGWYRQAPGKERELVAAITWRGGGTYYADSVKGRFTISRDNAKNTVYLQMNSLKPEDTAVYYCAKARFTRGTWFYYWGQGTQVTVSS”, the “polyreactivity (PSR sort gate)” value was “high polyreactivity”.

Take “QVQLVESGGGLVQAGGSLRLICAASGRTFYNAMGWYRQAPGKERELVAAISSAGRTYYADSVKGRFTISRDNAKNTVYLQMNSLKPEDTAVYYCAATAFSYYPYHGDYWGQGTQVTVSS”: the “polyreactivity (PSR sort gate)” value was “high polyreactivity”.

Regarding “QVQLVESGGGLVQAGGSLRLSCAASGRIFRLYAMGWYRQAPGKERELVASISKSGGSTYYADSVKGRFTISRDNAKNTVYLQMNSLKPADSAVYYCAADYRTHGGYEGTFDYWGQGTQVTVSS”, the “polyreactivity (PSR sort gate)” value is “low polyreactivity”.

As to “QVQLVESGGGLVQAGGSLRLSCAASGSASRGNAMGWYRQAPGKERELVATISQSGGNTFYADSVKGRFTISRDNAKNSVYLQMNSLKPEDTAVYYCAAGRYWFGWYDYWGQGTQVTVSS”, the “polyreactivity (PSR sort gate)” value is given as “high polyreactivity”.

In the case of “QVQLVESGGGLVQAGGSHSLSCAASGSTFKHYAMGWYRQAPGKERELVAAISWGGVNTDYADSVKGRFTISRDNAKNTVYLQMNSLNPEDTAVYYCAAGRWSVGTYDYWGQGTQVTVSS”, the “polyreactivity (PSR sort gate)” value is reported as “low polyreactivity”.

In the case of “QVQLVESGGGLVQAGGSLRLSCAASGFIFYNYAMGWYRQAPGKERELVAAISASGGRTYYADSVKGRFTISRDNAKNTVYLQMNRLKPEETAVYYCNARVNYKGYDYWGQGTQVTVSS”, the “polyreactivity (PSR sort gate)” value is listed as “high polyreactivity”.

For “QVQLEESGGGLVQAGGSLRLSCAASGITFAHYAMGWSRQAPGKDRELVAAISQSGGSTYYADSVKGRFTISRDNAKNTVYLQMNSLKPEDTAVYYCNKYRYPQDDYWGQGTQVTVSS”, the “polyreactivity (PSR sort gate)” value is “high polyreactivity”.

Regarding “QVQVVESGGGLVQAGGSLRLSCAASGRIFNYYAMGWYRPAPGKERELVATITGGGRTYYADSVKGRFTISRDNGMKTVYLQMNSLKPEDSAVYYCAAQYGGLSYRYDYWGQGTQVTVSS”, the “polyreactivity (PSR sort gate)” value is “high polyreactivity”.

Turning to “QVQLVESGGGLVQAGGSLRLSCAASGRIFPFYVMGWYRQAPGKERELVATINWSGGSTYYADSVKGRFTISRDNAKNTVYLQMNSLKPEDTAVYYCNAAPSDDYDYWGQGTQVTVSS”, the “polyreactivity (PSR sort gate)” value is reported as “low polyreactivity”.

Regarding “QVQLVESGGRLVQAGGSLRLSCAASGFIFVGNDMAWYRQAPGKVRELVAAISSGGTTNYADSVKGRFTNSRDNAKNTVYLQMNSLKPEDTAVYDCAADYDYRQGYDSVHLDYWGQGTQVTVSS”, the “polyreactivity (PSR sort gate)” value is “low polyreactivity”.

In the case of “QVQLVESAGGLVQAGGSLRLSCASSGSTLPYNAMGWYRQAPGKESELVAAISKSGGRTYYADSVKGRFTISRDNAKNSVYLQMNSLKPEDTAVYYCNAGPYLGGGGSSRYLWGQGTQVTVSS”, the “polyreactivity (PSR sort gate)” value was “high polyreactivity”.

Regarding “QVQLVESGGGLVQAGRSHRLSCAASGIIFYKYAMGWYRQAPVKERELVAAISGTGGSTYYADSVKGRFTISRDNAKNTVYLQMNSVTAEDPAVYYCAATHYSFSWGYDYWGQGTQGTVSS”, the “polyreactivity (PSR sort gate)” value is given as “high polyreactivity”.

“QVQLVESGGGLVQAGGSLRLSCAASGRIFHYYAMGWYRQAPGKERELVAAINSAGSTKYADSVKGRFTISRDNAKNTVYLQMNSLKPEDTAVYYCAAERGSRDGGYDYWGQGTQVTVSS”: the “polyreactivity (PSR sort gate)” value was “low polyreactivity”.

On to “QVQLVESGGGLVQAGGSLRLSCAASGSTFQYNVMGWSRQAPGKERELVAAIRQSGSTTYYADSVKGRFTISRDNAKNTVYLQMNSLKPEDSAVYYCAKRYHNWANSRMDYWGQGSQVTVSS”, for which the “polyreactivity (PSR sort gate)” value is “low polyreactivity”.

In the case of “QVQLVESGGGLVQAGGSLRLSCGASGSIFRLNAMGWYRQAPGKERELVARIDSSGSTNYADSVKGRFTISRDNAKNTVYLQMNSLKPEDTAVYYCAAVLVLIVGMDSWGQGTQVTVSS”, the “polyreactivity (PSR sort gate)” value is listed as “low polyreactivity”.

On to “QVQLVESGGGLVQAGGSLRLSCAASGSIFGAYTMGWYRQAPGKERELVAAISRSGSTYYADSVKGRFTISRDNAKNTVYLQMKSLKPEDTAVYYCYGVGYSGLRRYYKYDYWGQGTQVTVSS”, for which the “polyreactivity (PSR sort gate)” value is “high polyreactivity”.

Consider “QVQLVESGGGLVQAGGSLRLSCAASGSIFRLYAMGWYRQAPGKERELVAAITRGDSTNYADSVKGRFTISRDNAKNTVYLQMNSLKPEDTAVYYCAVTGRLYAHPQGYDYWGQGTQVTVSS”, for which the “polyreactivity (PSR sort gate)” value is “low polyreactivity”.

On to “QVQLVESGGGVVQAGGSLRLSCAASGRIFDIYDMGWYRQAPGKERELVAAITSGRNTYYADSVKGRFTISRDNAKNTVYLQMNSLKPEDTAVSYCAAYSYPPLLWSYDYWGQGTQVTVSS”, for which the “polyreactivity (PSR sort gate)” value was “low polyreactivity”.

Turning to “QVQLVESGGGLVQAGGSLRLSCAASGSIFRNNAMGWYRQAPGKERELVASISSSGDSTYADSVKGRFTISRDNAKNTVYLQMNSLKPEDTAVYYCARDYLSPYAVDYWGQGTQVTVSS”, the “polyreactivity (PSR sort gate)” value is reported as “low polyreactivity”.

Take “QVQLVESGGGLVQSGGSLRLSCAASGIIFQYYAMGWYRQAPGKEMELVAAITSSGGSTFYADSVKGSFTISRDNAKNTVYLQMNSLKPEDTAVYYCAAVYHRSTYDYWGQGTQVNVSS”: the “polyreactivity (PSR sort gate)” value is reported as “high polyreactivity”.

Regarding “QVQLVESGGGLVQAGGSLRLSCAASGRTFSNYVMGWSRQAPGKERELVAAITYSGGSTYYADSVKGRFTISRDNAKYTVYLQMNSLKPEDTAVYYCARRWGGSGYYYWGQGTQVTVSS”, the “polyreactivity (PSR sort gate)” value is on record as “high polyreactivity”.

For “QVQLVESGGGLVQAGGSLRLSCAASGSIFPHNAMGWYRQAPGKERVLVASITSRGGITYYADSVKGRFTISRDNAKNTVYLQMNSLKPEDTAVYYCAADLYIYPYDYWGQGTQVTVSS”, the “polyreactivity (PSR sort gate)” value is “low polyreactivity”.

For the sequence “QVQLVESGGGLVQAGGSLRLSCAASGRIFAVNAMGWYRQAHGKERELVASISRRGGTTNYADSVKGRFTISRDNAKNTVYLKMNSLIPEDTAVYYCATRGSAWGRSYNYWGQGTQVTLSS”, the “polyreactivity (PSR sort gate)” value is given as “high polyreactivity”.

With “QVQLGESGGGLVQAGGSLRLSCSASMGWNSQAPGKERELVAITRTTRTYYADSVKGRFTISRDNAKNTVYLQMNSLKPEDTAVYYCAAPNGPSPYWYNYWGQGTQVTVSS”, the “polyreactivity (PSR sort gate)” value was “low polyreactivity”.

As for “QVQLVESGGGLVQAGGSLRLSCAASGRTFYSYAMGWYRQAPGKERELVAGITWSGTSTYYADSVKGRFTISRDNAKNTVYLQMNSLKPEDTAVYYCAAATLYSRYDYWGQGTQVTVSS”, the “polyreactivity (PSR sort gate)” value is given as “low polyreactivity”.

On to “QVQLVESGGGLVQAGGSLRLSCAASGSIFASYAMGWYRQAPGKERELVAAIRSSGGRTYYADSVKGRFTISRDNAKYTVYLQMYSLKPEDTAVYYCNDRRPGYRPYGYDYWGQGTQVTVSS”, for which the “polyreactivity (PSR sort gate)” value is given as “high polyreactivity”.

Take “QVQLVESGGGLVQAGRSLRLSCAASGSIFTYYAMGWYRQGPGQERELVAAINWSGGGTYYADSLKGRFTISRDNAKINVYLQMNSLKPEDTAVYYCNALRKTYRLDYWGQGTQVTLSS”: the “polyreactivity (PSR sort gate)” value is reported as “high polyreactivity”.

Take “QVQLVESGGGLVQAGGSLRLSCAASGFIFRYNTMGWYRQAPGKQRELVATITSGGSTYYADSVKGRFTISRDNAKNTFYLQMNSLKPEDTAVYYFAKVRDVLWRFNYWGQGTQVTVSS”: the “polyreactivity (PSR sort gate)” value was “high polyreactivity”.

With “QVQLVESGGGLVQAGGSLRLTCAASGNTFWDNAMRWYRQAPGKERELVAAIRWSTGSTHYADSVKGRFTISRDNAKNTVYLQMNSLKPEDTAVYDCAATDYYYYRDKYYGYVYWGQGTHVTVSS”, the “polyreactivity (PSR sort gate)” value is “low polyreactivity”.

For the sequence “QVQLVESGGGLVQAGGSLRLSFAASGRTFGTNGMGWYRQAPGKEREFVAAITWNGGGTYYADSVKGRFTISRDNAKNTVYLQMNSLKPEDTSVYYSAKRTRWNYKGYGTGGYYWGQGTQVTVSS”, the “polyreactivity (PSR sort gate)” value is recorded as “high polyreactivity”.

On to “QVQLVESGGGLVQAGGSLRLSCAASGGTFGRYAMGWYRQAPGKERELVADINWSGGGTYYADSVKGRFTISRDNAKNTVYLQMNSLKPEDTAVYYCGARVVEIFHWAGDYWGQGTQVTVSS”, for which the “polyreactivity (PSR sort gate)” value is recorded as “low polyreactivity”.

For the sequence “QVQLVESGGGLVQAGGSLRLSCAASGSIFAVYVMGWYRQAPGKDRELVAAIRRGGTTTYADSVKGRFTISRDNAKTTVYLQMNSLKPEDTAVYYCAADSYARYLYSYYSPYDYWGQGTQVTVSS”, the “polyreactivity (PSR sort gate)” value is recorded as “low polyreactivity”.

For “QVQLVESGGGLVQAGGSLRLSCAASGNIFIRYAMGWYRQAPGKERDLVAAISQSGGGTSYADSVKGRFTISRDNAKNTVYLQMNSLKPEDTAVYYCNARYWRYPWRFGAWVGHDYWGQGTQVTVSS”, the “polyreactivity (PSR sort gate)” value is recorded as “low polyreactivity”.

On to “QVQRVESGGGLVQAGGSLRLSCAASGRTFWRNAMGWYRQAPGKERELVARISWSGGSTYYADSVKGRFTISRDNAKNTVYLQMNSLKPEDTAVYYCAKYYPGRSAFSDGNYWVQGTQVTVSS”, for which the “polyreactivity (PSR sort gate)” value was “low polyreactivity”.

“QVQLVESGGGLVHAGGSLRLSCAASGLTFYGYTMGCYRQAPGKERQLVADISISGGSTRYADSVKGRFTISRDNAKNTVYLQMISLKPEDTAVYYCARDDIYYSNIYDYWGQGTQVTVSS”: the “polyreactivity (PSR sort gate)” value is on record as “low polyreactivity”.

“QVQLVESGGGLVQAGGSLRLSCAASGRTFGVYVMGWYIQAPGKERELVAVITISGGSTYYADSVKGRFTISRDNAKNTVYLQMNSLKPEDTAVYYCAARTYYGYDYWGQGTQVTVSS”: the “polyreactivity (PSR sort gate)” value is given as “high polyreactivity”.

Turning to “QVQRVETGRGIVQAGGILRLSCAASGRTFHLYAMGWYRQQPGKERELVADIDGDGGSTYYSDSVKGRFTISRDNAKNTVYLQMNSLKPEDTAVYDCAASRFDYWGQGTQVTVSS”, the “polyreactivity (PSR sort gate)” value was “low polyreactivity”.

As for “QVQLVESGGGLVQAGGSLRLSCAASGRTFVRNTMGWYRQAPGKERELVAAISGGGSTYYADSVKGRFTISRDNAKNTVYLQMNSLKPEDTAVYYCAATTRRQGGKRFDYWGQGTQVTVSS”, the “polyreactivity (PSR sort gate)” value is “high polyreactivity”.

“QVQLVESGGGLVQAGGSLRLSCAASGRIFYRYGMGWYRQAPGKERELVASITRGGSTYYADSVKGRFTISRDNAKNTVYLQMNSLKPEDTAVYYCNAQTRYRYQYGYLGGTGYNYWGQGTQVTVSS”: the “polyreactivity (PSR sort gate)” value is “low polyreactivity”.

For “QVQLVESGGGLVQAGGSLRLSCASSGSTLGVNAMGWYRQAPGKVRELVADISVRTDSTYYADSVKGRFTISRDNAKNTVYLQMNSLKPEDTAVYYCAADVPYYYPGFYSYYDDSDYWGQGTQVTVSS”, the “polyreactivity (PSR sort gate)” value is given as “low polyreactivity”.

Turning to “QVQLVESGGGLVHEGGSLRLIFAASGRIFGPNHMGWYRQAPGKERELVAAITDSCDITYYADSVKGRFTISRDNAKNTVYLQMNSLKPQDTAVYYCAADHTYENEYWGQGTQVNVSS”, the “polyreactivity (PSR sort gate)” value is “low polyreactivity”.
